Entries after “also recorded” stand apart in the source; their conditions may differ.
Experiments:
PapD [1] = molecular target: T1, PapD (Escherichia coli, UniProt P15319); assay: ELISA: PapD binding to peptides coated on microtiter wells; parameters: made in house; species or system E. coli; conditions: for binding of PapD to immobilized peptide: peptide coated on microtiter wells, ELISA; for reduction of binding of PapD to the immobilized peptide: variant of the PapG carboxyl terminal peptide
T1 sequence (P15319 22-239): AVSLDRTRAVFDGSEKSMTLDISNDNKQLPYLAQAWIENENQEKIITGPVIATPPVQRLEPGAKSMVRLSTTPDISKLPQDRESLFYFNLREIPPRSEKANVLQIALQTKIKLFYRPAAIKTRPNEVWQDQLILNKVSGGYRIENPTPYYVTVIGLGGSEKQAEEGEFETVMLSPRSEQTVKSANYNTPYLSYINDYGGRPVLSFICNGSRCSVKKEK
Protocol: The residues in the peptides were numbered starting with the carboxyl terminal residue as 1, and ending with the amino terminal residue. Peptides were also synthesized which deviated in length (G1'-16'WT, G1'-11'WT, G1'-7'WT) or sequence (G2'-21'amide, G1'-19'SV, G1'-19'NH2) from the wild type PapG carboxyl terminal sequence. Using an enzyme-linked immunosorbent assay (ELISA), we tested the ability of PapD to bind to each peptide coated on wells of microtiter plates:
5 mg/ml stock solutions of peptides in water or 50% acetic acid were diluted to a concentration of 2.5 pmol/50 μl in PBS. 50 μl of the peptide solution was coated overnight onto microtiter wells (Nunc-Immuno Plate Maxisorp) at 4° C. The solutions in the plates were discarded, and the wells were blocked with 200 μl 3% bovine serum albumin (BSA, Sigma) in PBS (120 mM NaCl/2.7 mM KCl/10 mM phosphate buffer salts, pH 7.4) for 2 hours at 25° C. The plates were washed vigorously 3 times with PBS and incubated with 50 μl of the indicated amount of purified PapD (Lindberg et al, 1989). After 3 washes with PBS, the wells were incubated with a 1:500 dilution of anti-PapD rabbit antiserum (Lindberg et al, 1989) in 3% BSA/PBS for 45 min. at 25° C. After 3 washes with PBS, the wells were incubated with a 1:1000 dilution of goat anti-rabbit IgG coupled to alkaline phosphatase (Sigma) in 3% BSA/PBS for 45 min. at 25° C. Following 3 washes with PBS and 3 washes with developing buffer (10 mM diethanolamine pH 9.5, 0,5 mM MgCl2), 50 μl filtered p-nitrophenyl phosphate substrate (Sigma) in developing buffer (10 mg/ml) was added. The absorbance at 405 nm was read after 60 min of incubation in the dark at 25° C.

[2] = Water solubility of peptides; assay type: physicochemical; parameters: key: *: Water insoluble peptides
PapD [3] = molecular target: T1, PapD; assay: ELISA: peptide inhibition of PapD binding to MBP-G1'-140' fusion protein; parameters: species or system E. coli; conditions: PapD preincubated with peptide at 1:25 ratio
Protocol: The ability of the peptides to inhibit the binding of PapD to the MBP-G1'-140' fusion protein was then investigated using the following ELISA test:
Stock solutions of MBP-G1'-140' proteins in PBS were diluted to 0.1 μM with PBS. The wells of microtiter plates were coated with 50 μl of the protein solutions overnight at 4° C. The wells were washed with PBS, and blocked with 200 μl of 3% bovine serum albumin (BSA) in PBS for 2 hours at 25° C. The plates were washed vigorously three times with PBS and incubated with 50 μl of 1-5 μM PapD proteins in 3% BSA-PBS for 45 minutes at 25° C. The PapD was preincubated with each of the peptides at a 1:25 ratio for 30 min before being added to the wells. After three washings with PBS, the wells were incubated with a 1:500 dilution of rabbit anti-PapD antiserum in 3% BSA-PBS for 45 minutes at 25° C. After three washings with PBS, the wells were incubated with a 1:1000 dilution of goat antiserum to rabbit IgG coupled to alkaline phosphatase in 3% BSA-PBS for 45 minutes at 25° C. After three washings with PBS and three washings with developing buffer (10 mM diethanolamine, 0.5 mM MgCl2), 50 μl filtered 1 mg/ml p-nitrophenyl phosphate in developing buffer was added, the reaction was incubated for 1 hour or longer if necessary in the dark at 25° C., and the absorbance at 405 nm was read.

PapD-PapG complex = molecular target: T2, PapD-PapG complex (Escherichia coli, UniProt P15319); assay: Reconstitution assay: restoration of PapD-PapG complex from reduced, denatured PapG; assay type: biochemical, E. coli; conditions: PapD incubated with increasing amounts of peptide
T2 construct: made in house
T2 sequence (P15319 22-239): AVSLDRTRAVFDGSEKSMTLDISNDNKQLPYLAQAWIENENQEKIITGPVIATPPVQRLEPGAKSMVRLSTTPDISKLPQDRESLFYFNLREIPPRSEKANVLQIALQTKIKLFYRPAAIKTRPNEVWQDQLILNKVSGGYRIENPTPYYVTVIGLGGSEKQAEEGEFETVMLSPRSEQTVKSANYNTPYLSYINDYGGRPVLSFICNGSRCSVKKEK
Protocol: B: PapD incubated with the G1'-19'WT, G1'-16'WT, K1'-19'WT, and G2'-21'amide was added to reduced, denatured PapD-PapG and the amount of PapD-PapG complex restored in each sample was quantitated as described in example 2. The % inhibition represents the amount of the PapD-PapG complex restored with peptide-treated PapD compared to the amount of PapD-PapG complex restored with untreated PapD. The graph represent the average of 4 experiments. PapD and PapD-PapG complex were prepared as described in F. Lindberg et al, J. Bacteriol. 171, 6052 (1989) and S. J. Hultgren et al., Proc. Natl. Acad. Sci. U.S.A. 86, 4357 (1989).
FIG. 7: Ability of PapD Arg-8, Lys-112 and Thr-7 mutants to bind PapG and restore the PapD-PapG complex in vitro. 0.4 μg of PapD-PapG complex was reduced and denatured as described in FIG. 2B. The denatured PapD-PapG complex was then diluted with 0-630 ng purified wild type (WT) or mutant PapD. The amount of PapD-PapG restored in the samples was determined as in FIG. 2B and was graphed as a percentage of the greatest amount of PapD-PapG restored. The values graphed represent the average of 3 experiments. Wild type and mutant PapD and the PapD-PapG complex were purified as described in F. Lindberg et al, J. Bacteriol. 171, 6052 (1989) and S. J. Hultgren et al., Proc. Natl. Acad. Sci. U.S.A. 86, 4357 (1989).
As described in Kuehn et al., Proc. Natl. Acad. Sci. U.S.A. 88, 10586 (1991), native PapD is able to bind to reduced, denatured PapG and restore the PapD-PapG complex in vitro. This reconstitution assay was used to determine the ability of the peptides to inhibit PapD activity in vitro.
The PapD-peptide solution was then added to the reduced, denatured PapD-PapG, incubated at 25° C. for 10 min, and applied to an IEF 3-9 gel (Pharmacia). The amount of PapD-PapG restored in each sample was quantitated by densitometry of the silver stained IEF band corresponding to the pI of the DG complex.

PapD [4] = molecular target: T1, PapD; assay: Protection of PapD against tryptic cleavage by peptides; assay type: biochemical, E. coli; parameters: made in house; conditions: PapD preincubated with 20-fold molar excess of peptide
Protocol: A Lower: The rate of trypsin cleavage of PapD decreased upon preincubation with the G1'-19'WT, G1'-16'WT or K1'-19'WT peptides, but the G2'-21'amide peptide had no effect. 50 μg of purified PapD was preincubated for 15 min at 25° C. with a 20-fold molar excess of G1'-19'WT, G1'-16'WT, K1'-19'WT or G2'-21'amide peptides (any trypsin cleavage sites in these peptides occur at their amino termini where they were predicted not to interfere with PapD), or an equivalent volume of water. Each sample was then incubated at 37° C. with 3.2 μg of trypsin. Aliquots were removed after 0, 5, 10, 20, 30 and 40 min and boiled in SDS-PAGE sample buffer to stop the digestion. The samples were applied to 15% SDS-PAGE gels and the amount of full-length PapD remaining was determined by densitometry of Coomassie blue stained bands corresponding to full-length PapD which are shown.
400 μg of PapD was partially digested by incubation with either 4,5 μg trypsin or 0.45 μg chymotrypsin on PBS for 20 min. at 37° C. The PapD digests were applied to a C-18 HPLC column (Beckman) and 2 major fragments were eluted with a 0-100% acetonitrile gradient in 0.01% trifluoroacetic acid. The PapD fragments were identified by their molecular weight on SDS-PAGE and amino-terminal sequencing. The N-terminal amino acid sequences of the approximately 14 kDa tryptic and chymotryptic fragments were identified as residues 100-108 and 104-109 of PapD, respectively, corresponding to cleavage after Lys-99 (for trypsin) and Leu-103 (for chymotrypsin). The N-terminal sequences of the 11 and 12 kDa bands in the digests were identical to the N-terminal sequence of PapD.

PapD [5] = molecular target: T1, PapD; assay: Soluble inhibition ELISA: peptide inhibition of PapD binding to G1'-19'WT-coated wells; parameters: made in house; species or system E. coli; conditions: for % Inhibition: 25-fold molar excess of peptide, 100 pmol/well PapD, G1'-19'WT-coated wells; for inhibition of PapD binding to immobilized G1'-19'WT by soluble peptide: peptide in solution
Protocol: In addition, the ability of water-soluble peptides to inhibit PapD binding to G1'-19'WT-coated wells in a soluble inhibition ELISA were tested, since peptide conformations may have been affected by binding to the plastic microtiter plates:
Microtiter wells were coated overnight at 4° C. with 50 μl of 2,5 pmol/50 μl of the G1'-19'WT peptide. The wells were washed with PBS and blocked with 3% bovine serum albumin (BSA). A 25-fold molar excess of each test peptide was pre-incubated with 100 pmoles PapD for 30 min. and the PapD-peptide solution was then added to the coated wells and incubated at 25° C. for 45 min in the presence of 3% BSA/PBS. The subsequent primary antibody, secondary antibody and developing steps are described above. The ability of the peptides to inhibit binding of PapD to the G1'-19'WT peptide was calculated by dividing the amount of PapD binding in the presence of peptide with the amount of PapD binding in the presence of water. 0% inhibition includes values where binding was greater than that of PapD pre-incubated with H2 O.
The % inhibition represents the percentage of PapD binding in the presence of the peptide compared to in the presence of water and are the average of two experiments performed duplicate: […]

HB101/pPAP37 = assay: Hemagglutination titer of PapD mutants; assay type: cell-based, E. coli; conditions: induction with 0.01 mM IPTG; greatest bacterial dilution which still agglutinates erythrocytes
Protocol: *The hemagglutionation (HA) titer was quantitated after induction with
0.01 mM IPTG. The HA titer represents the greatest bacterial dilution
which still agglutinates erythrocytes. HB101/pPAP37 expressing wild type
PapD has an HA titer of 128.

## H-SGSMTMVLSFP-OH [G1'-11'WT, NH2--SGSMTMVLSFP--COOH]
PapD [1]
  binding of PapD to immobilized peptide: binds
[2]
  water solubility: *
PapD [3]
  inhibition of binding of PapD to MBP-G1'-140' fusion protein: significantly more potent

## NH2--EEGKRKPGELSGSMTMVLSF--CONH2 (H-EEGKRKPGELSGSMTMVLSF-NH2) [G2'-21'amide]
PapD-PapG complex
  inhibition of restoration of the PapD-PapG complex by PapD: no effect
PapD [4]
  rate of tryptic cleavage of PapD: no effect
PapD [1]
  binding of PapD to immobilized peptide: reduced binding
  reduction of binding of PapD to the immobilized peptide: approximately 75%
PapD [5]
  % Inhibition: 0%
  inhibition of PapD binding to immobilized G1'-19'WT by soluble peptide: abolished binding

## NH2--GILNGGDFQTTASMAMIYN--COOH (H-GILNGGDFQTTASMAMIYN-OH) [F1'-19'WT]
PapD [1]
  binding of PapD to immobilized peptide: moderately

## NH2--GKRKPGELSGSMTMVLSFP--CONH2 (H-GKRKPGELSGSMTMVLSFP-NH2) [G1'-19'amide]
PapD [1]
  binding of PapD to immobilized peptide: did not affect binding
PapD [5]
  % Inhibition: 56%
  inhibition of PapD binding to immobilized G1'-19'WT by soluble peptide: did not affect binding

## NH2--GKRKPGELSGSMTMVLSFP--COOH (H-GKRKPGELSGSMTMVLSFP-OH) [G1'-19'WT, 19 carboxyl terminal residues of PapG]
PapD-PapG complex
  inhibition of restoration of the PapD-PapG complex by PapD: inhibit restoration
PapD [4]
  rate of tryptic cleavage of PapD: decreased; also recorded: reduced the rate of tryptic cleavage
PapD [1]
  binding of PapD to immobilized peptide: bound well
PapD [5]
  % Inhibition: 63%

## NH2--GKRKPVELSGSMTMVLSSP--COOH (H-GKRKPVELSGSMTMVLSSP-OH) [G1'-19'SV]
PapD [1]
  reduction of binding of PapD to the immobilized peptide: 36%
PapD [5]
  inhibition of PapD binding to immobilized G1'-19'WT by soluble peptide: as efficient a soluble PapD inhibitor as the peptide G1'-19'WT

## NH2--KKLEAGNYFAVLGFRVDYE--COOH (H-KKLEAGNYFAVLGFRVDYE-OH) [H1'-19'WT]
PapD [1]
  binding of PapD to immobilized peptide: no binding

## NH2--KSVVPGDYEATATFELTYR--COOH (H-KSVVPGDYEATATFELTYR-OH) [K1'-19'WT]
PapD-PapG complex
  inhibition of restoration of the PapD-PapG complex by PapD: inhibit restoration
PapD [4]
  rate of tryptic cleavage of PapD: decreased; also recorded: reduced the rate of tryptic cleavage
PapD [1]
  binding of PapD to immobilized peptide: moderately

## NH2--QNLIAGPFSATATLVASYS--COOH (H-QNLIAGPFSATATLVASYS-OH) [E1'-19'WT]
PapD [1]
  binding of PapD to immobilized peptide: moderately
[2]
  water solubility: *

## NH2--YALAPNAVIPTSLALL--COOH (H-YALAPNAVIPTSLALL-OH) [MS, random hydrophobic peptide, reference compound]
PapD [1]
  binding of PapD to immobilized peptide: no binding
PapD [5]
  % Inhibition: 1%

B1: wild type PapD: wild type periplasmic chaperone PapD (protein, UniProt P15319 22-239, looked up)
Chaperone protein PapD: AVSLDRTRAVFDGSEKSMTLDISNDNKQLPYLAQAWIENENQEKIITGPVIATPPVQRLEPGAKSMVRLSTTPDISKLPQDRESLFYFNLREIPPRSEKANVLQIALQTKIKLFYRPAAIKTRPNEVWQDQLILNKVSGGYRIENPTPYYVTVIGLGGSEKQAEEGEFETVMLSPRSEQTVKSANYNTPYLSYINDYGGRPVLSFICNGSRCSVKKEK
HB101/pPAP37
  HA titer: 128
